Assay: soluble on expression in E. coli; label from the status in PepcDB or PDB records

Sequence | soluble on expression in E. coli
MSLDRNLYEDTFVVFDVETTGLSAVYDTIIELAAVKIKGGEIVDRFESFANPHHALSQTTIDLTGITDDMVNDAPEVADVLKDFHTWMGNDILVAHNASFDMGFLNQGFQRIDYEKASNPVVDTLELARFLLPELRNHRLNTLCKHLDIELTQHHRAIYDAEATGYLLWKLVQRLVEKEISNHEGHHHHHH | soluble
MTDFSVWETAPFGATVDHILQRYHNVHRAQFEELVPLAQKVAQVHADTFPAEIAELLAYMQNELLMHMMKEERMLFPMINQGVGRGAAMPIGVMMHEHEEHDRAIARLKELTDNFQPPEGACGSWTRLYALAKEMVEDLNDHIHLENDILFARVLDS | soluble
MAHHHHHHMSNCPHPRGDCGGRSVAAEGTLVPSHISCGDFTFQGGQTPRKELAGVHTSALMQPGLSSAVPSNSILSFSHDVVAAGNGMPPSVSPASSEKKKVLGTSGGGGSAEGTLNSANSSDQGPTGTPVKRNTKPLVPQQHVTKCQLTPNDAAASGLLITTPETPCNEKNPVYAAVGAARQSRERMISAENFTVIQPGGKLRTHLPPQRESGSDKKGKK | soluble
MSTFGEHRPYVFLPPADLDRIAAQWSKDSARPDAQGRGIAIFSAITGSYDSINHHEHLIPGADYLLFSDAPKPRYVYQPRQAPWFDCDTVRAARFIKTHPHMLLGGYRIAVWIDGNILIRGDLLPLVQRFEESGLAFGAVPHPLRQSVYAEAVECMKRGKDDEATIRRQMQRYRREEFDCEDLIESNLLMFRLGHPSLAPLLDTWWAQIESGSRRDQLSLNYALHKTGVEWLALTQRPHSVRDHPALALMHHRSQFNPLEHHHHHH | soluble
MSDKNIQDRAAGAIMGAFIGDALGLGPHWYYDLSELRRDYDDWITGYTDPKPDRYHAGLKAGQLSQSGFILKLMVRSLVGCGGYDTEDFCHRMDEELFPLLDGTPVNGPGGYTSQSIRETWRRRVQQMLPWGQTGGHADTTEAVERTLAIAVRYAYQPEQLAAAVSANTTLTQTDETIVSMTVAYGAVLGLLIQGHALDTGLSGKLMDLVKSGALPFHAVTGDDLQPPRPGDPDPPRAGRFASPDALLTPSYMAAAAVDPEIRIEPAWKVSIVYGMPCAIYHQLPAAYYLAARFRDDFKSAVLHAVNGGGQNQARAMLTGALAGAQTGLSGIPQYLLDGLDNSAVLGKLAVELAASVNPIMAGDPNSLEHHHHHH | not soluble
MGSDKIHHHHHHMNIAIIGSGLTGSLAAISLAKAGCRVDLYERLSDEELVNRDRTYAITHSSRKILEKLGIWSNLSRDLVPFQFLNVIDYELNKKFVFLTNDLPIPDQKYSAVGWIAEHKFIMLSILSVISNLENINKIPTSVIPNTNNYDLIVAADGSSSNTKKKLNTPSFHFKYDQMCITAKVLLRGVKSNEAFEILNSEGPFAVLPLGGDLFQVICSQSILKGTYNMNLSKSLFLDYLSTILPYGIEPDTIIDSPESFPIDFCLNYLFFSGKYIYLGETAHKIHPVGGQGLNLCWRDVDCLSKLLSIPLLKNNHSLIPLIYSISRSFDVLSISILTDSLVRYSRSNISIFYLPRLLVFFILKKSSLFRKYILNLMTNGF | not soluble
MIENHLYSLVTVVKYKLLPCLLAIFLTGCDRTEVTLSFTPEMASFSNEFDFDPLRGPVKDFTQTLMDEQGEVTKRVSGTLSEEGCFDSLELLDLENNTVVALVLDANYYRDAETLEKRVRLQGKCQLAELPSAGVSWETDDNGFVIKASSKQMQMEYRYDDQGYPLGKTTKSNDKTLSVSATPSTDPIKKLDYTAVTLLNNQRVGNVKQSCEYDSHANPVDCQLIIVDEGVKPAVERVYTIKNTIDYY | not soluble
MSRPPPPRAASGAPLRPATVLGTMEMGRRMDASASAASVRAFLERGHSELDTAFMYCDGQSENILGGLGLGLGSGDCTVKIATKANPWEGKSLKPDSIRSQLETSLKRLQCPRVDLFYLHAPDHSTPVEETLCACHQLHQEGKFVELGLSNYASWEVAEICTLCKSNGWILPTVYQGMYNATTRQVEAELLPCLRHFGLRFYAYNPLAGGLLTGKYKYEDKDGKQPVGRFFGNNWAETYRNRFWKEHHFEAIALVEKALQTTYGTNAPRMTSAALRWMYHHSQLQGTRGDAVILGMSSLEQLEQNLAATEEGPLEPAVVEAFDQAWNMVAHECPNYFR | soluble
MNIVALHVVLYHPEIPANTGNIARTCAATNTTLHLIRPLGFSTDDKMLKRAGLDYWEFVNVVYHDSLEELFEAYKKGKFFFITKFGQQPHTSFDYTDLDEDYFFVFGRETSGLPKDLIQNNMDRCLRLPMTEHVRSLNLSNTAAILVYEALRQQNYRDLK | soluble
MKRDGHTHTEFCPHGTHDDVEEMILKAIELDFDEYSIVEHAPLSSEFMKNTAGNQEAVTTASMSMSDLPYYFKKMNQMKKKYASDLLIHIGFEVDYLIGYEDFTRDFLNEYGPQTDDGVLSLHFLEGQGGFRSIDFTAEDYNEGIVQFYGGFEQAQLVYLAGVKQSIEADLGAFKPRRIGHISLCQKFQQFFGADGRDFTAEVIAEFEAILALVKKRGYELDFNTAGLFKPLCKETYPPKEIVTLARALEIPFVYGSDSHGVADIGRGYNTYCQK | not soluble
MRILWILPYSPWPTTSGGKTRQYHLLRSLAARGHRITVLLHSKQPVSAEDRQALEPFLERLVVLPRRPLRSLSTLLAALFAPYPLLASVNGLSAELQRTATELLREPWDVVQVEHSYSFQPYERPLRDAGQPFVLTEHNVESSLGAATYDRLPGWALPFVRYDQWRYRRWERRVMSQAAAVVAVTEKDARQLGAMLGRPVPVVVNGVDCEHFATARPTPEAQRVLFLGNYEYAPNVDAVEWMLDEILPRVWAHCPEARMSVCGYALPAEWAQRWSDPRIEWQGFVPDLLQLQSSSSVFLAALRHGGGSKLKVLEALAAGLPLASTAQGVSGLELRDGEDYLGGESAEQLANAVVRLLQDPAQARALGENGRAYVRRAHDWSVAASQLEQVYAGLAEGAPACA | not soluble
MGSDKIHHHHHHMDILQTANERMEQLAALMNKDIKQKVSADQKVKVGVDLGTSSIVFVVLDEHDVPLFGAFEFADAVRDGLVVNYRESVEVVTRLKERAEKCLGITLTHASGAIPPGTVGNNKKVVANVIESAGMEALYTIDEPTAAAAVLGLQDGAVVDVGGGTTGISVFENGEVIYTADEPTGGTHMTLVLAGYYGVPVEKAEQNKREQKDSSEHFSVMRPVVEKMAEITRVHLEKSPSEPLYIVGGASAYSQFKDTFESYLKTPVFQPNYPQYVTPLGIAMSSGSENL | not soluble
MQNVVGIDFQKSGKMEYYSPKGFDLDVGDWVVVESKRGLEMGRVKYAPLDVADQDVTLPLKEIVRLATEDDLLQYEKNEYDADEAMALCKETIQQHELEMRLVNCEYTLDKSKVIFNFTSDERVDFRKLVKVLAQKLKTRIELRQIGVRDEAKLLGGIGPCGRSLCCSTFLGDFEPVSIKMAKDQNLSLNPTKISGACGRLMCCLKYENDYYEEARAQLPDVGDAIETPEGNGKVIGLNILDISMQVKVEGLEQPLEYKMEELETLNLEHHHHHH | not soluble
AIAGSLGIVTNDPSPYSVHFHLTGFGRFHRVSQNPTEFLVKQFVSFCEERRGLHEAARVVTTTVATTSVKGAQQALDEVYGKLHRDKSVRNVIIHCGVDASANCFRLEERAYNEASFSCPDESGWQPKVVPIDDTKPVDSFLVTSINIRQAVEELEKKGFHVKSSEDAGRFLCNWIYYQSLTRAQCEFSVKVVFVHFPPIQDSQEIQSYCEFLLQLLNVITTHELSSIDE | soluble
MSAALEKPQIIAHIQKSLNYTVFESKWIPCSAKFVCMGNFARGTGVMQIYEIQHGELQLVREIEKSKPIKCGTFGATSLQQRHLATGDFDGNLNVWNLEVPDSPVYSVKAHKEIINAIDGVGGLGIGDGAPEIVTGSRDGTVKVWDSRQKDTPVVNMEPTEGETKRDCWTVAFGHAFNDQDRCVCAGYDNGDIKLFDLRNMSLRWEKNIRNGVCSVEFDRKDINMNKLVATSLEGKFHVFDMRTQHPSKGFASVSEKAHKSTIWQVRHLPQNRDVFMTAGGAGNLHLWKYEYPAQRSKKGADDVEMGVAGSVNLLQNVTLSTQPISSLDWSPDKQGLCVCSSFDQSVRVLIVTKLNTV | soluble
MSLDIAVVGIGYVGLVSATCFAELGANVRCIDTDRNKIEQLNSGTIPIYEPGLEKMIARNVKAGRLRFGTEIEQAVPEADIIFIAVGTPAGEDGSADMSYVLDAARSIGRAMSRYILIVTKSTVPVGSYRLIRKAIQEELDKREVLIDFDIASNPEFLKEGNAIDDFMKPDRVVVGVDSDRARELITSLYKPMLLNNFRVLFMDIASAEMTKYAANAMLATRISFMNDVANLCERVGADVSMVRLGIGSDSRIGSKFLYPGCGYGGSCFPKDVKALIRTAEDNGYRMEVLEAVERVNEKQKSILFDKFSTYYKGNVQGRCVAIWGLSFKPGTDDMREAPSLVLIEKLLEVGCRVRVYDPVAMKEAQKRLGDKVEYTTDMYDAVRGAEALFHVTEWKEFRMPDWSALSQAMAASLVIDGRNVYELPADSDFTLLNIGNSAIESEGHHHHHH | soluble
MNIEIKDTLISEEQLQEKVKELALQIERDFEGEEIVVIAVLKGSFVFAADLIRHIKNDVTIDFISASSYGNQTETTGKVKLLKDIDVNITGKNVIVVEDIIDSGLTLHFLKDHFFMHKPKALKFCTLLDKPERRKVDLTAEYVGFQIPDEFIVGYGIDCAEKYRNLPFIASVVTEESYNLKSR | soluble
MSLQLPISQYNELLQKKLEKLTALLHPFNAPDIQVFDSPTSHYRMRAEFRIWHEQDDFYHIMFDQATLQRYRVDEFPIASMLINRMMQTLLPLLKQQEVLHKKLFQIDYLSTLSNKIIVSLLYHKTLTEEWESAAKNLKDLLEKQDFDVQIIGRASKQKICFEQDYVDEVLPVNGRNYVYRQVENSFTQPNATVNCKMLEWAIDCTQNSEGDLLELYCGNGNFSIALAQNFRKVLATEIAKPSVAAAQFNIAENKVDNLQIIRMSAEEFTQAMNGVRAFNRLKGIDLKSYECNTIFVDPPRAGLDPDTVKLVQNYDRILYISCNPHTLCDNLVELSKTHRIEKAALFDQFPYTDHMESGLWLIRKEGHHHHHH | soluble
SHVEYSRITKFFQEQPLEGYTLFSHRSAPNGFKVAIVLSELGFHYNTIFLDFNLGEHRAPEFVSVNPNARVPALIDHGMDNLSIWESGAILLHLVNKYYKETGNPLLWSDDLADQSQINAWLFFQTSGHAPMIGQALHFRYFHSQKIASAVERYTDEVRRVYGVVEMALAERREALVMELDTENAAAYSAGTTPMSQSRFFDYPVWLVGDKLTIADLAFVPWNNVVDRIGINIKIEFPEVYKWTKHMMRRPAVIKALRGE | soluble
MSLSPSPAIPSNTDYPGPHSFDVSFQQSSTAKSATWTYSTELKKLYCQIAKTCPIQIKVMTPPPQGAVIRAMPVYKKAEHVTEVVKRCPNHELSREFNEGQIAPPSHLIRVEGNSHAQYVEDPITGRQSVLVPYEPPQVGTEFTTVLYNFMCNSSCVGGMNRRPILIIVTLETRDGQVLGRRCFEARICACPGRDRKADEDSIRKQQVSDSTKNGDGTKRPFRQNTEGHHHHHH | soluble
MSLNNPTPKIDQTNNIVIGQKINPDKMHRAKEFRRQMTPAEKILWQHLRGNRLNGLHFRRQQIIDGFIADFYCHAARLVIEVDGKIHELQAEYDAERDRVLLARGLRLLRVKNEEVVQEIDQVLMLISEVCCEETEGHHHHHH | soluble
